Measurements from paper PMC8058328 (Developmental cell, 2021).

Target: T1, GST-SH3BP4-HIS8x (human, UniProt Q9P0V3 1-963)
T1 sequence (looked up): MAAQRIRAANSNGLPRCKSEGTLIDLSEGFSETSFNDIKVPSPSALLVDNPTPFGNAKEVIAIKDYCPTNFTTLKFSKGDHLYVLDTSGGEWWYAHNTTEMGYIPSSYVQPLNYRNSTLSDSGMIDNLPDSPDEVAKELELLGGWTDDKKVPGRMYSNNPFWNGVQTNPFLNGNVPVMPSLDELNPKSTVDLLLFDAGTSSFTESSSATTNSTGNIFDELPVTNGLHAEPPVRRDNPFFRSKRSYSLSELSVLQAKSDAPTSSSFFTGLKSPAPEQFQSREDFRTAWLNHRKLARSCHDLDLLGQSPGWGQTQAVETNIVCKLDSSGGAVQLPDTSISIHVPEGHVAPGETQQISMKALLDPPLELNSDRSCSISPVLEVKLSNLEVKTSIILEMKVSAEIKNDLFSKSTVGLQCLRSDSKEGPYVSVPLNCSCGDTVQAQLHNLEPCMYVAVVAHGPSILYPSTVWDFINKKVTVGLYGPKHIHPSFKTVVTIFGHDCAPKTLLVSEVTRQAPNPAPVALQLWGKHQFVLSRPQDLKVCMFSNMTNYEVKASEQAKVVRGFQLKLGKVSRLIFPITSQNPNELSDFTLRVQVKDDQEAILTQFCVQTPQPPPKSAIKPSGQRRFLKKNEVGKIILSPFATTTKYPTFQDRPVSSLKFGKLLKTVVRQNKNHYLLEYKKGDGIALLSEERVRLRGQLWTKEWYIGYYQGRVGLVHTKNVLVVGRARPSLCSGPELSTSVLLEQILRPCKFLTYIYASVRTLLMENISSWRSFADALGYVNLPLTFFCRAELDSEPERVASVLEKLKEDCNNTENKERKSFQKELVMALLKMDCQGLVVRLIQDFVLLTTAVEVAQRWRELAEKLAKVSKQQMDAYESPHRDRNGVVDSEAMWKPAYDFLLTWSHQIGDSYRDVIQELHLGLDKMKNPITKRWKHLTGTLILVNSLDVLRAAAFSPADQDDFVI
Test: pull-down

B1: GIPC1-HIS8x (natural protein, human, UniProt O14908 1-333, looked up)
chain: MPLGLGRRKKAPPLVENEEAEPGRGGLGVGEPGPLGGGGSGGPQMGLPPPPPALRPRLVFHTQLAHGSPTGRIEGFTNVKELYGKIAEAFRLPTAEVMFCTLNTHKVDMDKLLGGQIGLEDFIFAHVKGQRKEVEVFKSEDALGLTITDNGAGYAFIKRIKEGSVIDHIHLISVGDMIEAINGQSLLGCRHYEVARLLKELPRGRTFTLKLTEPRKAFDMISQRSAGGRPGSGPQLGTGRGTLRLRSRGPATVEDLPSAFEEKAIEKVDDLLESYMGIRDTELAATMVELGKDKRNPDELAEALDERLGDFAFPDEFVFDVWGAIGDAKVGRY
binding result: binds
